Reference: patent publication US20180169233A1 (MOSAIC BIOMEDICALS S L, published 2018)

Target: human LIF (source not stated) (human, UniProt P15018 23-202)
Test: cell-based or functional assay

human LIF (source not stated), sequence (P15018 23-202 limits assumed): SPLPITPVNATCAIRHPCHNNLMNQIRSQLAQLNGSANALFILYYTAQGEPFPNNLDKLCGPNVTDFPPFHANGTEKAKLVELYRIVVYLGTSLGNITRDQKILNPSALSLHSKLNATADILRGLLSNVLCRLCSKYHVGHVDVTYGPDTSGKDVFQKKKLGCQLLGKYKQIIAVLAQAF

- IC50 for biological inhibition (pSTAT3, U-251 cells, serum starved, endogenous LIF): 490 picomolar
B1: h5D8 (humanized 5D8 comprising H2 and L2) (antibody, human IgG1, kappa, V domains shown)
VH: QVQLQESGGGLVKPGGSLRLSCAASGFTFSHAWMHWVRQAPGKGLEWVGQIKAKSDDYATYYAESVKGRFTISRDDSKNTLYLQMNSLKTEDTAVYYCTCWEWDLDFWGQGTMVTVSS
VL: DIVMTQTPLSSPVTLGQPASISCRSSQSLLDSDGHTYLNWLQQRPGQPPRLLIYSVSNLESGVPDRFSGSGAGTDFTLKISRVEAEDVGVYYCMQATHAPPYTFGQGTKLEIKR
